Target: T1, wild-type (polymerization-competent) yeast αβ-tubulin, P09733;P02557
T1 chain 1: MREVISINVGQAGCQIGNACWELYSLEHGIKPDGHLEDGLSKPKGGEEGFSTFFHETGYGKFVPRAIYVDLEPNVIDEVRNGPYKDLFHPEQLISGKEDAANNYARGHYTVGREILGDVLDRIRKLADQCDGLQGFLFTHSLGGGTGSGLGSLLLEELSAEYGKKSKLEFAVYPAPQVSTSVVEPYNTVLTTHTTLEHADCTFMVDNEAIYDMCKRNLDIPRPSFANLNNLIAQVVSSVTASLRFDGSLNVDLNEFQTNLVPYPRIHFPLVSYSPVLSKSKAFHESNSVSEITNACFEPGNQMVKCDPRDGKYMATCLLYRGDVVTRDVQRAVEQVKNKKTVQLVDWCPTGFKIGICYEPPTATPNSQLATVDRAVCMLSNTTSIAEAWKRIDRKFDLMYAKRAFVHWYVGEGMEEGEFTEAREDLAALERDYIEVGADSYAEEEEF
T1 chain 2: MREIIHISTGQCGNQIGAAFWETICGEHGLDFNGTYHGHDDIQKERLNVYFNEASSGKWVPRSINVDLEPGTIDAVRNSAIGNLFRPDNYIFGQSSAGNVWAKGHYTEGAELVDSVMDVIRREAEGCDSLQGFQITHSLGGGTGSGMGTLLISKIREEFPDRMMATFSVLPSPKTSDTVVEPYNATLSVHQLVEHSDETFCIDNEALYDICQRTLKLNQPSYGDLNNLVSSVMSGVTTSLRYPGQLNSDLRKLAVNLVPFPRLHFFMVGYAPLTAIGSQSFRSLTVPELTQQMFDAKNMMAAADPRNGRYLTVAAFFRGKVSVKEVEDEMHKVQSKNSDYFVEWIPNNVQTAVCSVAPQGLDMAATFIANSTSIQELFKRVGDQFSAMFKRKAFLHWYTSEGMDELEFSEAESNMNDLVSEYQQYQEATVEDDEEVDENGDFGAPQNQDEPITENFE
Assay: sedimentation velocity AUC
Conditions: chain shown with the change; [TOG1-TOG2] = 1.7 µM; [αβ] = 0.35 µM

B1: TOG1-TOG2(1-560) of Stu2p, P46675 W341A (protein)
chain: MSGEEEVDYTTLPLEERLTYKLWKARLEAYKELNQLFRNSVGDISRDDNIQIYWRDPTLFAQYITDSNVVAQEQAIVALNSLIDAFASSSLKNAHNITLISTWTPLLVEKGLTSSRATTKTQSMSCILSLCGLDTSITQSVELVIPFFEKKLPKLIAAAANCVYELMAAFGLTNVNVQTFLPELLKHVPQLAGHGDRNVRSQTMNLIVEIYKVTGNNSDLLEEILFKKLKPIQVKDLHKLFAKVGDEPSSSKMLFEWEKRELEKKRSQEEEARKRKSILSNDEGEYQIDKDGDTLMGMETDMPPSKQQSGVQIDTFSMLPEETILDKLPKDFQERITSSKAKDRVEALEEFWDSVLSQTKKLKSTSQNYSNLLGIYGHIIQKDANIQAVALAAQSVELICDKLKTPGFSKDYVSLVFTPLLDRTKEKKPSVIEAIRKALLTICKYYDPLASSGRNEDMLKDILEHMKHKTPQIRMECTQLFNASMKEEKDGYSTLQRYLKDEVVPIVIQIVNDTQPAIRTIGFESFAILIKIFGMNTFVKTLEHLDNLKRKKIEETVKTL
other: sedimentation coefficient of the TOG1-TOG2:αβ-tubulin complex (s20,w): 7.1 S

— publication PMC4145800
